Measured values: PMC3498381, “Isolated Toll-like Receptor Transmembrane Domains Are Capable of Oligomerization” (PLoS ONE, 2012)
Where “and” joins values, the source holds several entries; their conditions need not be identical. Equal entries are not always repeated.

What was measured:
[1] = target: synthetic TLR6 transmembrane domain peptide, coumarin-labelled (human); experiment: AUC; sedimentation equilibrium; labelled peptide in density matched C14-betaine micelles (10 mM), 100 mM HEPES pH 7.4; FITC-TLR2 read at 495 nm, coumarin-TLR6 at 400 nm; for the heterotypic run FITC-TLR2 with 2 equiv. of coumarin-TLR6; global fit
TMD5 D150A = experiment: homotypic ToxR assay; details: higher signal = more homotypic TMD association; parent: est. 1.0; read off a plot
[2] = target: synthetic TLR1 transmembrane domain peptide, coumarin-labelled (human); experiment: FRET or BRET; coumarin-TLR1 or -TLR6 peptide (donor) fixed at 20 nM, fluorescein-TLR2 peptide (acceptor) titrated 0-1500 nM; 1 mM C14-betaine micelles, 100 mM HEPES pH 7.4; excitation 415 nm; Hill equation
[3] = target: synthetic TLR6 transmembrane domain peptide, coumarin-labelled (human); experiment: as above
[4] = target: synthetic TLR2 transmembrane domain peptide, fluorescein-labelled (human); experiment: AUC; sedimentation equilibrium; labelled peptide in density matched C14-betaine micelles (10 mM), 100 mM HEPES pH 7.4; FITC-TLR2 read at 495 nm, coumarin-TLR6 at 400 nm; for the heterotypic run FITC-TLR2 with 2 equiv. of coumarin-TLR6; global fit
TLR2 G593A = experiment: homotypic ToxR assay; details: higher signal = more homotypic TMD association; parent: est. 1.0; read off a plot
[5] = target: T1, TLR2 transmembrane domain C609I (ToxR chimera), O60603; experiment: homotypic ToxR assay; details: chain shown with the change; higher signal = more homotypic TMD association; parent: est. 1.0; read off a plot
T1 chain: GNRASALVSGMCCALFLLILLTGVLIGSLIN

[6] = target: T2, TLR1 transmembrane domain (ToxR chimera); experiment: heterotypic ToxR assay; details: chain shown with the change; competitor TLR1* (nonfunctional ToxR* chimera); PolyLeu* = 1.0; lower signal = more ToxR inhibition = more interaction; parent: est. 0.47; read off a plot
T2 chain: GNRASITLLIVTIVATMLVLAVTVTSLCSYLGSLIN

[7] = target: T3, TLR10 transmembrane domain (ToxR chimera); experiment: heterotypic ToxR assay; details: chain shown with the change; competitor TLR10* (nonfunctional ToxR* chimera); PolyLeu* = 1.0; lower signal = more ToxR inhibition = more interaction; parent: est. 0.41; read off a plot
T3 chain: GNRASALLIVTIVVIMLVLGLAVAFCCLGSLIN

[8] = target: T4, TLR2 transmembrane domain (ToxR chimera); experiment: heterotypic ToxR assay; details: chain shown with the change; competitor TLR2* (nonfunctional ToxR* chimera); PolyLeu* = 1.0; lower signal = more ToxR inhibition = more interaction; parent: est. 0.42; read off a plot
T4 chain: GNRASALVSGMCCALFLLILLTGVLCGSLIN

[9] = target: T5, TLR4 transmembrane domain (ToxR chimera); experiment: heterotypic ToxR assay; details: chain shown with the change; competitor TLR4* (nonfunctional ToxR* chimera); PolyLeu* = 1.0; lower signal = more ToxR inhibition = more interaction; parent: est. 0.90; read off a plot
T5 chain: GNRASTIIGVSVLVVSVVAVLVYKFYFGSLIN

[10] = target: T6, TLR5 transmembrane domain (ToxR chimera); experiment: heterotypic ToxR assay; details: chain shown with the change; competitor TLR5* (nonfunctional ToxR* chimera); PolyLeu* = 1.0; lower signal = more ToxR inhibition = more interaction; parent: est. 0.53; read off a plot
T6 chain: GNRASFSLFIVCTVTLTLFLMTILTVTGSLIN

[11] = target: T7, TLR6 transmembrane domain (ToxR chimera); experiment: heterotypic ToxR assay; details: chain shown with the change; competitor TLR6* (nonfunctional ToxR* chimera); PolyLeu* = 1.0; lower signal = more ToxR inhibition = more interaction; parent: est. 0.24; read off a plot
T7 chain: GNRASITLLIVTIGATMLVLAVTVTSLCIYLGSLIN

synthetic TLR6 transmembrane domain peptide, coumarin-labelled
stoichiometry N [1]: 2

TMD5 from latent membrane protein 1 (ToxR* chimera) D150A
response (normalized Miller units) (TMD5 D150A): 0.59

synthetic TLR2 transmembrane domain peptide, fluorescein-labelled
Kd [2]: 0.231 µM
Kd [3]: 0.287 µM
stoichiometry N [4]: 2 and 4

TLR2 transmembrane domain (ToxR chimera) G593A
response (normalized Miller units) (TLR2 G593A): 1.1

GNRASALVSGMCCALFLLILLTGVLIGSLIN [TLR2 transmembrane domain (ToxR chimera) C609I]
response (normalized Miller units) [5]: 1.1
response (normalized Miller units) [6]: 0.78
response (normalized Miller units) [7]: 0.63
response (normalized Miller units) [8]: 0.55
response (normalized Miller units) [9]: 0.88
response (normalized Miller units) [10]: 0.81
response (normalized Miller units) [11]: 0.82
